Earlier results in PMC7308888, “Development of a cell-free split-luciferase biochemical assay as a tool for screening for inhibitors of challenging protein-protein interaction targets” (Wellcome Open Research, 2020).

Biological target: RAF (Homo sapiens) (UniProt P04049)

RAS (from UniProt P01116)
Kd: 20 nM
